Data: US20210138066A1, “REMOTE-CONTROLLED IMAGE-GUIDED DRUG DELIVERY VIA ULTRASOUND-MODULATED MOLECULAR DIFFUSION” (California Institute of Technology, priority 2019, published 2021)

Assay: Payloads added to the reservoir: Stokes' diameter
Format: physicochemical

Adalimumab
Stokes' Diameter: 10 nm
